T1: SUMO1(15-55) (human, Where it is the MST target, it carries Alexa Fluor 647 NHS ester on amines (NHS-647); the letters do not show this.)
T1 construct: Fragment 15-55 of human SUMO1; Recombinant SUMO1 fragments were made with an N-terminal His-tag removed by thrombin; also called SUMO(15-55); SUMO1(15-55) peptide
T1 peptide: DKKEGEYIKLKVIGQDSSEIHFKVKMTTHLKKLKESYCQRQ

B1: αsyn(74-84) (peptide)
peptide: VTAVAQKTVEG
notes: Peptide fragment of α-synuclein; also called β4 strand peptide
B2: αsyn(48-60) (peptide)
peptide: VVHGVATVAEKTK
notes: Synthesized peptide; also called β2-strand peptide αsyn(48-60); SIM 2 (residues 48-60)
B3: αsyn(35-45) (peptide)
peptide: EGVLYVGSKTK
notes: Synthesized peptide fragment of α-synuclein; also called β1 strand peptide; β1-strand peptide-αsyn (35-45)

Legend:
[1] = molecular target: T1, SUMO1(15-55); test: MST; NHS-647 labelled SUMO1(15-55) as target, peptide titrated as ligand
Protocol: The labelling reaction was performed according to the manufacturer's instructions. Unreacted dye was removed with the dye removal column supplied in the Protein Labelling Kit RED-NHS (NanoTemper Technologies) or desalting column (Bio-Rad). The purity was monitored by measuring the ratio of protein to dye (for example, spectroscopically by measuring absorption at 280 nm for protein and 650 nm for the dye; molar absorbance: 239,000 M⁻¹ cm⁻¹) after the clean-up procedure. The labelled targets were adjusted to appropriate concentration for detection. The ligands were dissolved in reaction buffer and a series of 16 1:1 dilutions was prepared. For the measurement, each ligand dilution was mixed with one volume of labelled protein target. After 10 min incubation, the samples were loaded into standard or premium Monolith NT.115 Capillaries (NanoTemper Technologies). MST was measured using a Monolith NT.115 instrument (NanoTemper Technologies) at an ambient temperature of 25° C. Instrument parameters were adjusted to 20% LED power and medium MST power. Data of three independently pipetted measurements were analyzed (MO.Affinity Analysis software version 2.1.3, NanoTemper Technologies) using the signal from an MST-on time of 5 s.

[2] = molecular target: T1, SUMO1(15-55); test: MST (FIG. 11b)
Protocol: Unreacted dye was removed with desalting column (2K MWCO, Bio-Rad). The purity was monitored by measuring the ratio of protein to dye after the clean-up procedure. The labelled targets were adjusted to appropriate concentration for detection and kept in ddH2O with 0.1% Tween 20, meanwhile, the ligands were maintained in corresponding buffer (peptides: ddH2O; α-synuclein proteins: 20 mM HEPES, 150 mM NaCl, pH 7.4). For each assay, unlabelled ligand was mixed with equal volume of labelled protein target at 16 different serially diluted concentrations at room temperature.

[3] = molecular target: human wild-type α-synuclein (full-length) (human, UniProt P37840 1-140); test: MST (FIG. 7)

Binder	Kd [1] [nM]	further results
B1	2210	
B2		binding result [2]: binds
SSEIHFKVKMTTHLKKLKESYCQRQ (also called SUMO(31-55)) [SUMO1(31-55)]		binding result [3]: binds
B3	1150	

From patent US20220194997A1 (CHINESE UNIVERSITY OF HONG KONG, published 2022)
